Tested on: LOS4 ATPase
Assay: Steady-state ATPase assay of LOS4-His
Type: biochemical, Arabidopsis thaliana
Details: for stimulation of LOS4 ATPase activity in the absence of InsP6: 1 μM LOS4-His, 2 mM ATP, 2 μM MBP-Gle1C or variant
Description: A steady-state ATPase assay was performed as described by Alcázar-Román et al. (Inositol hexakisphosphate and Gle1 activate the DEAD-box protein Dbp5 for nuclear mRNA export. Nat. Cell Biol. 8: 711-716, 2006) with slight modifications. The ATPase assay was performed with a LOS4-His protein in a 96-well plate using a buffer containing 20 mM HEPES (pH 7.5), 150 mM NaCl, 3 mM MgCl2, 1 mM DTT, 2 mM ATP, 6 mM phosphoenolpyruvate, 1.2 mM NADH, 1 mg/ml BSA and 2% (v/v) pyruvate kinase/lactate dihydrogenase (Sigma-Aldrich) in a total volume of 100 μl. Polyadenylic acid was added at 50 μg/ml or different concentrations as described above. Absorbance at 340 nm was measured using a VersaMax absorbance microplate reader (Molecular Devices), and the data were analyzed using SoftMax Pro software (Molecular Devices).
Gle1 and Gle1C (aa residues 244-611) were cloned into a pMAL C2X vector (New England Biolabs) for MBP fusion, LOS4 was cloned into a pET-29a vector for His fusion. MBP-Gle1 and MBP-Gle1C proteins were expressed in a BL21 (DE3) strain, and LOS4-His proteins were expressed in a Rosseta (DE3) strain of Escherichia coli. Cells were grown at 37° C. to an A600 of 0.4, shifted to 16° C., and induced by 0.25 mM IPTG for 16 hours. The MBP- and His-fusion proteins were purified following the manufacturer's introductions using MBP Excellose (Bioprogen) and His60 Ni Superflow™ resin (Clontech), respectively.

Row | Molecule | InsP6 concentration at which LOS4-stimulating activity increases above basal (with RNA, InsP6 0-100 μM) [nM] | stimulation of LOS4 ATPase activity in the absence of InsP6 (RNA, no InsP6) | other results
1 | polyadenylic acid [RNA, reference compound] | – | – | LOS4 ATPase activity (LOS4-His 1 μM, ATP 2 mM, RNA 50 μg/ml only): moderately stimulated LOS4 ATPase activity
2 | O=S(=O)(O)OC1C(OS(=O)(=O)O)C(OS(=O)(=O)O)C(OS(=O)(=O)O)C(OS(=O)(=O)O)C1OS(=O)(=O)O (stereo not shown) [InsP6 analog, reference compound] | – | – | further stimulation of LOS4 ATPase activity (LOS4-His 1 μM, ATP 2 mM, RNA, MBP-Gle1 2 μM plus 10 μM InsP6 analog): did not do so
3 | MBP-Gle1C (ID): MBP fusion of Arabidopsis Gle1C variant InsP6-Dead: mutation from K436 to A (protein) QEKARAEAQMLAKIRAEEEKKEVERKAAREVAEKEVADRKAAEQKLAEQKAVIESVTGSSATSNAQAGGNSIRAAESALILENHRLKKLEELETTNQSLKSRSNENFSSFEKHIGRVIRQISGTKDSVSGKINDIVKIFKDPRCPVSISIAAFAKKMVTTKEKPNPFACSYVIVYINSQFPQVMDILLAEFHAACIYTVPKHIVNSQSAWDSDAYERLDSIMRLYGALVQTDIRVGNATNVHGIEHGWAWLARFLNKIPANRATATALNSFLQTAGFGLHQRYKSQFLKVVNVVREHFLQKLRAKKDTSDLLVIIAEITAYLDDRMYLKEPEGRAMKTTSTLSSELTAELNQPNYNQNYQRNDYRNYY | – | reduced abilities to stimulate LOS4 | decrease in LOS4-stimulating activity in the absence of InsP6 (K436A mutation vs MBP-Gle1C, no InsP6): > 2 fold

Second part, led by results:

Row | InsP6 concentration at which LOS4-stimulating activity increases above basal (with RNA, InsP6 0-100 μM) [nM] | Molecule | stimulation of LOS4 ATPase activity in the absence of InsP6 (RNA, no InsP6) | other results
4 | 100 | MBP-Gle1C (IS1): MBP fusion of Arabidopsis Gle1C variant InsP6-Sensitive 1: mutation from A437 to K (protein) QEKARAEAQMLAKIRAEEEKKEVERKAAREVAEKEVADRKAAEQKLAEQKAVIESVTGSSATSNAQAGGNSIRAAESALILENHRLKKLEELETTNQSLKSRSNENFSSFEKHIGRVIRQISGTKDSVSGKINDIVKIFKDPRCPVSISIAAFAKKMVTTKEKPNPFACSYVIVYINSQFPQVMDILLAEFHKKCIYTVPKHIVNSQSAWDSDAYERLDSIMRLYGALVQTDIRVGNATNVHGIEHGWAWLARFLNKIPANRATATALNSFLQTAGFGLHQRYKSQFLKVVNVVREHFLQKLRAKKDTSDLLVIIAEITAYLDDRMYLKEPEGRAMKTTSTLSSELTAELNQPNYNQNYQRNDYRNYY | activated LOS4 ATPase activity to similar degrees | InsP6 concentration giving maximum LOS4-stimulating activity (with RNA, InsP6 0-100 μM): ~1 µM
5 | 1 | MBP-Gle1C (IS2): MBP fusion of Arabidopsis Gle1C variant InsP6-Sensitive 2: double mutations from E433 to K and from A437 to K (protein) QEKARAEAQMLAKIRAEEEKKEVERKAAREVAEKEVADRKAAEQKLAEQKAVIESVTGSSATSNAQAGGNSIRAAESALILENHRLKKLEELETTNQSLKSRSNENFSSFEKHIGRVIRQISGTKDSVSGKINDIVKIFKDPRCPVSISIAAFAKKMVTTKEKPNPFACSYVIVYINSQFPQVMDILLAKFHKKCIYTVPKHIVNSQSAWDSDAYERLDSIMRLYGALVQTDIRVGNATNVHGIEHGWAWLARFLNKIPANRATATALNSFLQTAGFGLHQRYKSQFLKVVNVVREHFLQKLRAKKDTSDLLVIIAEITAYLDDRMYLKEPEGRAMKTTSTLSSELTAELNQPNYNQNYQRNDYRNYY | reduced abilities to stimulate LOS4 | InsP6 concentration giving full stimulation of LOS4 ATPase activity (with RNA, InsP6 0-100 μM): 100 nM

— US10793871B2, “Nucleic acid molecule encoding glei protein variant with increased phytic acid sensitivity and use thereof” (University-Industry Foundation, Yonsei University, priority 2015, dated 2020)
